The values below come from the supplement of paper PMC9112550, “Optimization of the antimicrobial peptide Bac7 by deep mutational scanning” (BMC Biology, 2022).

The data set concerns Escherichia coli TOP10. As to the kind of experiment: shrunken log2 fold change of peptide-encoding DNA abundance (4.5 h post-induction vs induction); higher = less antimicrobial activity (less host growth inhibition). The note with it: time post-induction: 4.5 h; library: site-saturation at positions 5, 18, 19, 20.
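Note: peptides expressed intracellularly from a pBAD plasmid library in pooled LB shake-flask culture, induced with 0.3% L-arabinose, DNA abundance read by NGS, three biological replicates, DESeq2 with apeglm shrinkage.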

As for RRIRSRPPRLPRPRPRPRKRPRP, the “shrunken log2 fold change” value was determined as 0.213. For RRIRNRPPRLPRPRPRPPLKPRP, the “shrunken log2 fold change” value came out at 0.0326. The figure for RRIRHRPPRLPRPRPRPPNKPRP is -0.171. Then RRIRARPPRLPRPRPRPFFVPRP, with 0.149; and RRIRQRPPRLPRPRPRPMLLPRP, with -0.337; and RRIRNRPPRLPRPRPRPKAQPRP, with 0.0241. Then RRIRRRPPRLPRPRPRPENLPRP, with 0.0548. For RRIRRRPPRLPRPRPRPLFAPRP, the “shrunken log2 fold change” value was determined as 0.755. The figure for RRIRNRPPRLPRPRPRPGELPRP is -0.0397; for RRIRHRPPRLPRPRPRPTSYPRP it is -0.178; for RRIRARPPRLPRPRPRPSTVPRP it is 0.123. The figure for RRIRQRPPRLPRPRPRPYRQPRP is 0.00902; for RRIRQRPPRLPRPRPRPSQIPRP it is -0.0855; for RRIRQRPPRLPRPRPRPVSGPRP it is 0.179.

Take RRIRYRPPRLPRPRPRPEDYPRP: the “shrunken log2 fold change” value is -0.00116. The figure for RRIRMRPPRLPRPRPRPAPYPRP is 0.576. On to RRIRMRPPRLPRPRPRPSTKPRP, for which the “shrunken log2 fold change” value was found to be 0.291. Then RRIRTRPPRLPRPRPRPGYHPRP, with -0.315. Turning to RRIRYRPPRLPRPRPRPLQNPRP, the “shrunken log2 fold change” value came to 0.0956. Take RRIRDRPPRLPRPRPRPQSMPRP: the “shrunken log2 fold change” value was found to be 0.0598. Then RRIRARPPRLPRPRPRPVFQPRP, with 0.000109; and RRIRFRPPRLPRPRPRPAGKPRP, with 0.279; and RRIRRRPPRLPRPRPRPKRQPRP, with 0.584. Then RRIRFRPPRLPRPRPRPICYPRP, with 0.00889. Take RRIRMRPPRLPRPRPRPLWCPRP: the “shrunken log2 fold change” value was found to be 0.147. Regarding RRIRRRPPRLPRPRPRPEHEPRP, the “shrunken log2 fold change” value was 0.0952.

Turning to RRIRHRPPRLPRPRPRPIFLPRP, the “shrunken log2 fold change” value is -0.572.

As for RRIRCRPPRLPRPRPRPDDMPRP, the “shrunken log2 fold change” value is -0.477. As for RRIRARPPRLPRPRPRPKVYPRP, the “shrunken log2 fold change” value is -0.0122.

Turning to RRIRTRPPRLPRPRPRPSQGPRP, the “shrunken log2 fold change” value stood at 0.144.

Consider RRIRYRPPRLPRPRPRPGAMPRP, for which the “shrunken log2 fold change” value is 0.986. The figure for RRIRYRPPRLPRPRPRPVPSPRP is -0.404.

Consider RRIRCRPPRLPRPRPRPWNYPRP, for which the “shrunken log2 fold change” value was -0.282. Then RRIRVRPPRLPRPRPRPDCMPRP, with 0.116; and RRIRLRPPRLPRPRPRPPAIPRP, with 2.54; and RRIRRRPPRLPRPRPRPRLKPRP, with 0.231.

Consider RRIRFRPPRLPRPRPRPLKCPRP, for which the “shrunken log2 fold change” value is -0.189.

Consider RRIRNRPPRLPRPRPRPCLPPRP, for which the “shrunken log2 fold change” value was -0.217. The figure for RRIRGRPPRLPRPRPRPSCCPRP is 0.722; for RRIRERPPRLPRPRPRPHSQPRP it is 0.061. The figure for RRIRFRPPRLPRPRPRPYIPPRP is -1.8; for RRIRMRPPRLPRPRPRPWPFPRP it is 0.0942. The figure for RRIRERPPRLPRPRPRPLRAPRP is 0.348; for RRIRFRPPRLPRPRPRPSEWPRP it is -0.028. On to RRIRTRPPRLPRPRPRPQDKPRP, for which the “shrunken log2 fold change” value was -0.658. Take RRIRQRPPRLPRPRPRPQDPPRP: the “shrunken log2 fold change” value is -0.239. Regarding RRIRYRPPRLPRPRPRPNSYPRP, the “shrunken log2 fold change” value was -2.3. On to RRIRQRPPRLPRPRPRPFTLPRP, for which the “shrunken log2 fold change” value is -0.0549. Then RRIRVRPPRLPRPRPRPNGYPRP, with -0.199; and RRIRQRPPRLPRPRPRPDDRPRP, with -0.000777. As for RRIRFRPPRLPRPRPRPVQFPRP, the “shrunken log2 fold change” value is -0.652. RRIRTRPPRLPRPRPRPFKRPRP: the “shrunken log2 fold change” value is 0.122. Consider RRIRWRPPRLPRPRPRPLHMPRP, for which the “shrunken log2 fold change” value was -0.0711.

In the case of RRIRPRPPRLPRPRPRPVGLPRP, the “shrunken log2 fold change” value was 0.478. Then RRIRNRPPRLPRPRPRPHWYPRP, with -0.0582.

On to RRIRRRPPRLPRPRPRPSCDPRP, for which the “shrunken log2 fold change” value was determined as 0.177.

On to RRIRCRPPRLPRPRPRPFEGPRP, for which the “shrunken log2 fold change” value stood at 0.0192. As for RRIRSRPPRLPRPRPRPVESPRP, the “shrunken log2 fold change” value was -0.0897. Then RRIRFRPPRLPRPRPRPKPRPRP, with 0.886; and RRIRYRPPRLPRPRPRPTIMPRP, with -1.29; and RRIRYRPPRLPRPRPRPNYPPRP, with -0.79. Turning to RRIRYRPPRLPRPRPRPAYMPRP, the “shrunken log2 fold change” value was -0.396.

Take RRIRKRPPRLPRPRPRPIVQPRP: the “shrunken log2 fold change” value was found to be 0.000772. Then RRIRMRPPRLPRPRPRPYPIPRP, with 0.0414. In the case of RRIRIRPPRLPRPRPRPRCKPRP, the “shrunken log2 fold change” value is -0.35. With RRIRTRPPRLPRPRPRPQGDPRP, the “shrunken log2 fold change” value is -0.0192. The figure for RRIRERPPRLPRPRPRPPRDPRP is 0.226; for RRIRIRPPRLPRPRPRPFYEPRP it is -0.231. Then RRIRDRPPRLPRPRPRPPPAPRP, with 0.924; and RRIRRRPPRLPRPRPRPCDQPRP, with 0.0305. Then RRIRRRPPRLPRPRPRPIPEPRP, with 0.12; and RRIRQRPPRLPRPRPRPDWMPRP, with 0.0723.

With RRIRERPPRLPRPRPRPTFFPRP, the “shrunken log2 fold change” value stood at 0.321. The figure for RRIRARPPRLPRPRPRPVFGPRP is 0.353; for RRIRGRPPRLPRPRPRPSFRPRP it is 0.0601; for RRIRHRPPRLPRPRPRPGMNPRP it is 0.00489. For the sequence RRIRTRPPRLPRPRPRPYAIPRP, the “shrunken log2 fold change” value is -0.000694. The figure for RRIRYRPPRLPRPRPRPHQAPRP is -0.0296; for RRIRYRPPRLPRPRPRPDMNPRP it is 0.00911; for RRIRKRPPRLPRPRPRPIHLPRP it is -0.0911. Then RRIRRRPPRLPRPRPRPWVHPRP, with 0.000557; and RRIRPRPPRLPRPRPRPFAHPRP, with -0.124; and RRIRCRPPRLPRPRPRPTNVPRP, with -0.154. The figure for RRIRVRPPRLPRPRPRPEDVPRP is 0.0203; for RRIRCRPPRLPRPRPRPEHTPRP it is -0.0466; for RRIRYRPPRLPRPRPRPDEWPRP it is 0.0549. Take RRIRSRPPRLPRPRPRPCSMPRP: the “shrunken log2 fold change” value was -0.441. Then RRIRLRPPRLPRPRPRPLVLPRP, with -0.355. Then RRIRMRPPRLPRPRPRPANKPRP, with 0.178; and RRIRHRPPRLPRPRPRPGTAPRP, with -0.275; and RRIRCRPPRLPRPRPRPCRTPRP, with -0.168.
